Experimental data as given in the Human Domainome abundance scans (Beltran et al. 2025).

B1: Telomeric repeat-binding factor 2, residues 489 to 542; numbered along this chain, Q15554 (parent)
chain: KQKWTVEESEWVKAGVQKYGEGNWAAISKNYPFVNRTAVMIKDRWRTMKRLGMN

Variants of: B1
Test: abundance fitness (aPCA) (normalised: wild type 0, dead -1); higher = more abundant; growth selection in yeast, the domain comes from the species named
Conditions: Homo sapiens

Abundance fitness of substitutions, site by site:
W45: K -1.09; E -0.571; Y -0.318; S -0.933; R -0.953; L -0.815
T5: P -0.398; G -0.421
T47: P -0.67; D 0.145; S -0.017; I -0.094
N35: K -0.222; G -0.259; C -0.71
E21: Y -0.123; F -0.1; M -0.829; T -0.478
T37: N -0.614; D -0.247; Q -0.903; Y -0.967; I -0.689; P -0.404; C -0.724; V -0.461; M -0.974
L51: F -0.355; P -0.394; Q 0.036; A -0.043; C -0.171; G -0.035; E 0.283; D -0.259; S -0.025
E7: S -0.67; A -0.242; T -0.196; D -0.141; L -0.258; Q -0.075; M -0.015; W -0.443
N30: W -0.431; T -0.338; M -0.314; R -0.508; P -0.963; D -0.474; Y -0.284
A25: K -0.448; Y -0.235; M -0.018; I -0.217; P -0.663; Q 0.08; E 0.074
R36: G -0.816; C -0.495; T -0.853; H -0.649; M -0.693
K49: I -0.415; L -0.302; S -0.286; F -0.535; M -0.657; Q -0.054
R50: F 0.076; H -0.553; P -0.176; M 0.007; Q -0.026; E 0.052
W4: P -0.216; I -0.131; T -0.258; D -0.171; S -0.248; Q -0.266; E -0.126; Y -0.325; L -0.41; A -0.804; H -0.391
I41: E -0.975; D -0.673; S -1.13; R -1.16
K3: N -0.499; V -0.205; H -0.519; G -0.268; A -0.098
I27: G -0.901; F -0.606; H -0.235; S -1.12; W -0.919
A38: V -0.123; G -0.371; S -0.204; E -0.126; C -0.336
N54: Y -0.399; A 0.246; I -0.032; V -0.075
F33: T -0.826; R -0.845; P -0.871; V -0.604; H -0.212; C -0.899; W -0.166
V16: K -0.798; A -0.505; M -0.664; F -0.936; H -0.071; S -0.563; Q -0.398
Q2: N 0.333; R -0.202; C -0.248; L -0.017; F 0.725; I 0.29; V 0.271; W -0.34; D 0.184; H 0.518; A -0.138; G -0.163
A26: T 0.065; M -0.493; E -0.18
N23: K 0.133; P -0.773; T -0.478; Y -0.539; E -0.801
G20: W -0.541; P -0.813; Q -0.587; T -0.99; L -1.06; I -0.621; E -0.954
M48: D -0.507; W -0.359; N -0.376; Q -0.64; I -0.395; K -0.978
E8: W -0.153; N -0.707; R -0.638; Y 0.233; K -1; M -0.238; A -0.381
W11: T -0.12; N -0.391; I -0.241; A -0.352; R -0.553; M -0.111; D -0.183; Y -0.191
K1: E -0.323; M -0.501
S9: L -0.31; I -0.021; V -0.483; W -0.335; A -0.219; Y -0.481; C -0.343; R -0.671
A14: F -0.4; N -0.276; L -0.051; H -0.209; R -0.002; Y -0.217
V6: F 0.031; H 0.298; W -0.063; D 0.059; C 0.07; M -0.768; K 0.171; T -0.115
Y19: H -0.28; V -1.04; E -0.321; R -0.162
P32: C -0.593; N -0.294; G -0.429; A -0.327; R -0.4; Y -0.864; V -0.747; K -0.316; Q -0.501; E -0.611
M40: W 0.066; F 0.11; L -0.508; C 0.169; H -0.119
G15: C -0.652; H -0.946; A -0.761; L -0.503; M -0.934; F -0.888; D -0.772; E -0.758
S28: D -0.887; A 0.142; N 0.163; H 0.101; P -0.726; T 0.038; K 0.114; Q 0.11; G -0.171
E10: D -0.486; T -0.102; H 0.044; W -0.414
M53: P -0.147; D 0.349; Q -0.099; I -0.141; S -0.145; G -0.007; A -0.134; R -0.311
D43: W -0.502; S -0.204; N -0.061; E -0.046
K42: F -0.544; G -0.309; N -0.417; R 0.035; S -0.16; T -0.614
R44: P -0.863; E -0.59; A -0.236; H 0.125; M -0.234
V34: D -0.711; L -0.057; K -0.304; Y -0.331; A -0.16; S -0.172; M 0.208; I -0.066; F -0.129
K13: N -0.232; M -0.013; Q 0.076; I -0.163; H -0.13; Y -0.072
R46: A 0.106; D -0.195; E 0.204; V 0.005; F 0.073; K -0.007
Y31: M -0.431; V -0.496; T -0.727; W -0.444; H -0.539
K18: C -0.403; G -0.616; W -0.956; Q -0.07; T -0.035; S -0.736
K29: T -0.051; A -0.256; L -0.129; G -0.364
G22: P -0.846; V -0.489; E -0.461; I -0.595
V39: Y -0.015; T 0.135; R 0.032; H -0.442; P 0.059; M 0.1
W24: K -0.788; F -0.642; V -1.08; S -0.226; R -1.15; L -0.858; G -0.596
G52: N 0.049; D -0.011; W -0.449; I -0.019; H -0.215
Q17: C 0.016; K -0.143; P -0.63; E -0.441; S -0.087; L -0.014; D -0.273; R -0.2; A -0.031; F -0.469; M -0.531
V12: K -0.626; R -0.682; G -0.495; P -0.325; E -0.262; C -0.362
